Data taken from patent publication US20130287807A1, “COMPOUNDS FOR TREATING SYMPTOMS ASSOCIATED WITH PARKINSON'S DISEASE” (priority 2008, published 2013).
One block for each binder: values may come before it.

Key:
[1] = biological target: monoclonal antibody MV-001; experiment: ELISA on peptide-BSA; code 2 = medium binding, OD halfmax 1:4000-20000
[2] = biological target: monoclonal antibody MV-002; experiment: ELISA on peptide-BSA; code 3 = strong binding, OD halfmax 1:>320000

B2: p4689 (peptide)
peptide: GEILFGMC
OD halfmax dilution factor of the parental antibody (1:X) (dilutionfactor(1:x)) [2]: > 320000

B4: p4751 (peptide)
peptide: AYFPHTSC
OD halfmax 1:X (dilution factor of the parental antibody at half-maximal OD) (dilutionfactor(1:x)) [1]: 4000 to 20000

B8: p4690 (peptide)
peptide: GQLKFPFC
OD halfmax dilution factor of the parental antibody (1:X) (dilutionfactor(1:x)) [2]: > 320000

B10: p4737 (peptide)
peptide: AEFSHWHC
OD halfmax 1:X (dilution factor of the parental antibody at half-maximal OD) (dilutionfactor(1:x)) [1]: 4000 to 20000

B12: p4729 (peptide)
peptide: SQYFPRPC
OD halfmax 1:X (dilution factor of the parental antibody at half-maximal OD) (dilutionfactor(1:x)) [1]: 4000 to 20000

B13: p4686 (peptide)
peptide: GQIMFPRC
OD halfmax dilution factor of the parental antibody (1:X) (dilutionfactor(1:x)) [2]: > 320000

B14: p4671 (peptide)
peptide: GEMWFALC
OD halfmax dilution factor of the parental antibody (1:X) (dilutionfactor(1:x)) [2]: > 320000

B17: p4685 (peptide)
peptide: GELFFPKC
OD halfmax dilution factor of the parental antibody (1:X) (dilutionfactor(1:x)) [2]: > 320000

B18: p4687 (peptide)
peptide: HMRMYFEC
OD halfmax dilution factor of the parental antibody (1:X) (dilutionfactor(1:x)) [2]: > 320000

B26: p4735 (peptide)
peptide: ATFRHSTC
OD halfmax 1:X (dilution factor of the parental antibody at half-maximal OD) (dilutionfactor(1:x)) [1]: 4000 to 20000

B27: p4736 (peptide)
peptide: TGLMFKHC
OD halfmax 1:X (dilution factor of the parental antibody at half-maximal OD) (dilutionfactor(1:x)) [1]: 4000 to 20000

B29: p4699 (peptide)
peptide: GEIQFGAC
OD halfmax dilution factor of the parental antibody (1:X) (dilutionfactor(1:x)) [2]: > 320000

B30: p4683 (peptide)
peptide: GDLKFPLC
OD halfmax dilution factor of the parental antibody (1:X) (dilutionfactor(1:x)) [2]: > 320000

B31: p4670 (peptide)
peptide: HMRLFFNC
OD halfmax dilution factor of the parental antibody (1:X) (dilutionfactor(1:x)) [2]: > 320000

B33: p4731 (peptide)
peptide: MLPFRHGC
OD halfmax 1:X (dilution factor of the parental antibody at half-maximal OD) (dilutionfactor(1:x)) [1]: 4000 to 20000

B37: p4739 (peptide)
peptide: AEFMHSVC
OD halfmax 1:X (dilution factor of the parental antibody at half-maximal OD) (dilutionfactor(1:x)) [1]: 4000 to 20000

The next lines start with the values.

OD halfmax 1:X (dilution factor of the parental antibody at half-maximal OD) (dilutionfactor(1:x)) [1]: 4000 to 20000
B1: p4734 (peptide)
peptide: LQFKHSTC

OD halfmax dilution factor of the parental antibody (1:X) (dilutionfactor(1:x)) [2]: > 320000
B3: p4693 (peptide)
peptide: THQRLWFC

OD halfmax dilution factor of the parental antibody (1:X) (dilutionfactor(1:x)) [2]: > 320000
B5: p4696 (peptide)
peptide: GEIRFGSC

OD halfmax dilution factor of the parental antibody (1:X) (dilutionfactor(1:x)) [2]: > 320000
B6: p4667 (peptide)
peptide: NDAKIVFC

OD halfmax 1:X (dilution factor of the parental antibody at half-maximal OD) (dilutionfactor(1:x)) [1]: 4000 to 20000
B7: p4742 (peptide)
peptide: IGFRHDSC

OD halfmax 1:X (dilution factor of the parental antibody at half-maximal OD) (dilutionfactor(1:x)) [1]: 4000 to 20000
B9: p4727 (peptide)
peptide: NELFKHFC

OD halfmax dilution factor of the parental antibody (1:X) (dilutionfactor(1:x)) [2]: > 320000
B11: p4678 (peptide)
peptide: GEIRFALC

OD halfmax dilution factor of the parental antibody (1:X) (dilutionfactor(1:x)) [2]: > 320000
B15: p4679 (peptide)
peptide: GMIVFPHC

OD halfmax dilution factor of the parental antibody (1:X) (dilutionfactor(1:x)) [2]: > 320000
B16: p4676 (peptide)
peptide: GEMQFFIC

OD halfmax dilution factor of the parental antibody (1:X) (dilutionfactor(1:x)) [2]: > 320000
B19: p4674 (peptide)
peptide: SHQRLWFC

OD halfmax 1:X (dilution factor of the parental antibody at half-maximal OD) (dilutionfactor(1:x)) [1]: 4000 to 20000
B20: p4721 (peptide)
peptide: SLMRHSSC

OD halfmax dilution factor of the parental antibody (1:X) (dilutionfactor(1:x)) [2]: > 320000
B21: p4684 (peptide)
peptide: GQILFPVC

OD halfmax dilution factor of the parental antibody (1:X) (dilutionfactor(1:x)) [2]: > 320000
B22: p4697 (peptide)
peptide: GQIQFPLC

OD halfmax dilution factor of the parental antibody (1:X) (dilutionfactor(1:x)) [2]: > 320000
B23: p4680 (peptide)
peptide: GEIWFEGC

OD halfmax dilution factor of the parental antibody (1:X) (dilutionfactor(1:x)) [2]: > 320000
B24: p4672 (peptide)
peptide: GELQFPPC

OD halfmax dilution factor of the parental antibody (1:X) (dilutionfactor(1:x)) [2]: > 320000
B25: p4675 (peptide)
peptide: HQKMIFAC

OD halfmax 1:X (dilution factor of the parental antibody at half-maximal OD) (dilutionfactor(1:x)) [1]: 4000 to 20000
B28: p4732 (peptide)
peptide: SAMRHSLC

OD halfmax dilution factor of the parental antibody (1:X) (dilutionfactor(1:x)) [2]: > 320000
B32: p4694 (peptide)
peptide: GQIKFAQC

OD halfmax dilution factor of the parental antibody (1:X) (dilutionfactor(1:x)) [2]: > 320000
B34: p4669 (peptide)
peptide: GQIRFDHC

OD halfmax dilution factor of the parental antibody (1:X) (dilutionfactor(1:x)) [2]: > 320000
B35: p4698 (peptide)
peptide: GEIKFDHC

OD halfmax dilution factor of the parental antibody (1:X) (dilutionfactor(1:x)) [2]: > 320000
B36: p4681 (peptide)
peptide: GEIYFERC

OD halfmax dilution factor of the parental antibody (1:X) (dilutionfactor(1:x)) [2]: > 320000
B38: p4677 (peptide)
peptide: GELYFRAC

OD halfmax dilution factor of the parental antibody (1:X) (dilutionfactor(1:x)) [2]: > 320000
B39: p4673 (peptide)
peptide: GELWFPC
